According to the DeepSol protein solubility set:

Assay: soluble on expression in E. coli; label from the status in PepcDB or PDB records

Sequence | soluble on expression in E. coli
MGHHHHHHSHMLENRDYTLIIDKSGSMATPDQKGGRNRWVTAQESTLALASKCEQFDPDGITLYVFSGRFKRYENVTSAKVNQIFQENDPSGTTDLAAVLKHATDDYFQRKGAGKTKPNGETILVVTDGEPDDRKAVMRVIIEASRRMDKDEELAISFIQVGSDAQATRFLKVLDDELQGAGAKFDICDTVTMEDMEDLSLSEVLLNAITD | soluble
MNINKKVTLQRIQTLTELHGAPGFEEEVKNYMTQQMAPYVDEFIENRMGGFFGVKKSKNPNAKRVMIAAHMDEIGFMITNITKNGMIQFTNLGGVANDIWQGQRLVIKNRNGDKIIGVVSNIPKHFRTGSEGAPEIKDLTLDIGAQNEDEVRERGIDIGDTIVPHTPFTQLSEHRYSAKAWDNRYGCVLAIEILELLKDIELDVDLYVGANVQEEVGLRGAKASAEMIDPDVAFVVDCSPANDVKGNQPLSGELGKGTLIRIKDGTMILKPVFRDYLLKLVEAHDIEHQYYMSPGGTDGGEIHKANIGIPTAVIGVCARYIHSTDSVFDIRDYFAARSLLSEAICNLDNNQIETLQYK | not soluble
MGSDKIHHHHHHMSVPTTMFRLTGRDYPPAKLSHASLIIIDAQKEYLSGPLKLSGMDEAVANIARLLDAARKSGRPIIHVRHLGTVGGRFDPQGPAGQFIPGLEPLEGEIVIEKRMPNAFKNTKLHETLQELGHLDLIVCGFMSHSSVSTTVRRAKDYGYRCTLVEDASATRDLAFKDGVIPAAQIHQCEMAVMADNFACVAPTASLI | not soluble
MGSDKIHHHHHHMEIGLIDIKGTLPCFENFGNLPTKIIHENNISKIKDLEMLIIPGGSIVESGSFTDEFKKQILDFDNYIVGICSGFQILSEKIDIGRKSPIPIIKEGLGLLNVEFSPLICTDLVKFNIENDNLFGKKNQLGHGFHCHTYGNIEITNNSTKIWTTSEIEKLNYKMVGKQNILSGVFKNKVYGTMVHNLLDNDFVVENFLKNMKIKDDEKQEIFKKNSILKEKLKDRSKISENFKKIESNDKKGIILLATGSESGKTFLSTSICSKLKGKTFVSKIGPDVRDIVPSLYLLREPMTKFSSIKLSDRGWSEPSEFLEFVKNSKFNNYIIEGVMGAFTGALNKKNYSGSEVSKILGFPVYIISSCSKTGIEGSFVECMAYHSLLKEMGVNVAGIVLNRVYNAELLEKVKKIANDLNIDLIGVNKLNVNVDNKRGLIPEVEIDYEEFCNATMKLDFEIDIPKINPEKINEDSKTFEEYLKIWSEKLININ | not soluble
MGSDKIHHHHHHMNFYRDATWVLEDIEKEAAKERISGSMQTLVLKSCKRYKLKSNPKHIYAVLDSCWKYKPYLEKVMKKAHILEDIPKKKGKPLFSRLTLLLLCHDLLLSKQKRIQMGKHPIKDYVLKFKSPLHSEMVKLKLKLKVRELSELVLSEDISNDLPPVRWIRINPLKCHPNGETEPVLAELRKKFTLKVDKWSELVPGSIYYDEFIPNLFGIHPSDKITAHELYKHGKIIIQDRASCFPAHILNPGPSDIVIDSCSAPGNKTTHTASYIYPEPPKDNNTRIYAFEKDPERAKVLQKMIKIAGCSPNISVNVGDFTKLATPEKYKDVTCFIVDPSCSGSGIFGRKFFDSFNRRKIDDKDDDGGIVPDEQEEFIAKEELQTRLAKLSSFQFQMVKHAMSFPAAKKIVYSTCSIHAEENERVVIDLLLDKSVREWGWKVAPKREVIPSWPRRGKVEEFEEVFRDGVTYDPQQLAEGCIRALPKSDGGIGFFAVCFERD | not soluble
MGSDKIHHHHHHMAVRIVSRQPLTKGWSTDQKYKVQLEDGRLGLLRIAERPAYEAKRLEFQLVENLFGLGLPVAEPLSFWADDLSVYTLYEWVEGQDMNEVATSLSDSVLYDLGCQSGKFLRTLHALPIDQSQRDWNSFYQVKIDNKLAAYQAASHSYPTGPAMIDFVQANRHLLEGRPIAYHHGDFHTGNFLLGPDGKLKILDFDRYDIGDPWEEFNRLIFTADLSPAFARGQVDAYFDGAIPEEFWKLMALYVTVNCLAALSWAEQVDSEQIPMMKLQAQKISEWYEYFNHHLPKWYM | not soluble
MGSSHHHHHHSSGLVPRGSHMQIHTLTIRHGRSDPETVRSLLGQDQVLVVDYDAIHHHVINTAEYTYLSHMFDIIVLNLSGKLNDIIDTIMAGAAMVVIDPSVQEKRLREFFDITENIAMPYRGDGHSEAFSQLGGQYFVTDREIGYPFKLAYSTTDISGDRYIRVLDFPQDISDMIFERA | soluble
PETLVKVKDAEDQLCRTSHRPCRVGYIELDLNSGKILESFRPEERFPMMSTFKVLLCGAVLSRIDAGQEQLGRRIHYSQNDLVKYSPVTEKHLTDGMTVRELCSAAITMSDNTAANLLLTTIGGPKELTAFLHNMGDHVTRLDRWEPELNEAIPNDERDTTMPVAMATTLRKLLTGELLTLASRQQLIDWMEADKVAGPLLRSALPAGWFIADKSGAGRRGSRGIIAALGPDGKPSRIVVIYTTGSRKKTDERNRQIAEIGASLIKHWGLEQKLISEEDLNSAVDHHHHHH | soluble
MGKTLVVGAGGVSHAAVHKMAMNSDIFTEITLASRTKAKCDAIAASVKERTGVTIQTAALDAMDVAATVALIKETGAEILVNLALPYQDLKLMDACLEAGCHYLDTANYEPEDVAKFEYHWQWAYQDKFKEAGLTAILGSGFDPGVTSVFATWLKKHKLATIRQIDVLDA | not soluble
GPGSMEAAPAAAAPRLPQAPKRPREESDAPLQESSNGSVPANFSNEASVTTPVAGTELVVDVDQPETNAQASAVDAPRSRSRGLAAVGPGSTSPVAASRSGTDGANNCQPAAAVTTLSSSSASADARRFKQPTLAAYGLVSDTMTLKKEISDRDSHIEELNREVEGLRAEAGRRNDQINFMDGQCRQYQRKLEHFQSVMRQEMLSAAQKDRSEARRVLYQKHFELGQTATWHSNGQTVWMEGDRVRTLFLKLADLTQKREEVEALKKAAQSNVKHLARQEREREDSGAGPDLQDALMAAQMEYQLRASEHAALTNTIADVKLKQTEIEHEKKAFVKEMRRVNDEDTSEFLAIPTIGEGDRYVLMHLLGKGGFSEVWKAFDLVEGRYVACKIHHIQREWPAQTRTHYLRHAQRELDIMRALDHPHLTHLYDVFPRGDNMFISVMEYSNGMDLDTYLKRYRIFKEADARLIFLQVVDVLRYLASLDSPIIHYDLKPANILLHRDDPTILDIKITDFGLSKIIGATREGPSDNPSIELTSQGTGTYWYLPPECFETSSTPRISNKVDIWSAGVIFYQMLFGKRPFAEGESQRRIWQEKLIIQSARTLHFPDTPKVSEEAKDIIRGCLAFNERERCDVFQLSQDPYLFRTSRRSAHKAKSAAPAGVGSSNSPLMPPVTDATPAS | soluble
GEFLISILEAIEPEVVYAGYDNSQPDTTNYLLSSLNRLAGKQMVSVVKWAKALPGFRNLHLDDQMTLIQYSWMSLMAFSLGWRSYKHTNGQMLYFAPDLIFNEERMQQSAMYDLCQGMRQISQEFVRLQVTYEEFLCMKVLLLLSTVPKDGLKSQASFDEMRMNYIKELRRAIAKKENNSSQNWQRFYQLTKLLDSMHDLVGGLLQFCFYTFVQSQALSVEFPEMLVEIISDQLPKVMAGMAKPLLFHKK | soluble
MGLKVLLYDPDGEIAHFLEDIFEVTGHTLYPAGSEEEVFEYLKNEPEFFFLPFSLKEAWVNSLKERATIPIFFLFSEEEEERAKGLGIPEVNLVRVPFNPLELFERLGLLHKMKPKDFQEIGLFNTLVKSHLEEKGVKVKIKGSGGECLVNTYPVSLSCRLEELKELLKKRLRTGRR | not soluble
GAMDPEFMSTPLPAIVPAARKATAAVIFLHGLGDTGHGWAEAFAGIRSSHIKYICPHAPVRPVTLNMNVAMPSWFDIIGLSPDSQEDESGIKQAAENIKALIDQEVKNGIPSNRIILGGFSQGGALSLYTALTTQQKLAGVTALSCWLPLRASFPQGPIGGANRDISILQCHGDCDPLVPLMFGSLTVEKLKTLVNPANVTFKTYEGMMHSSCQQEMMDVKQFIDKLLPPID | soluble
MLRFPENVVICDGKRILWNGLGLPENLVFEMARTVLESNVPLKGKIFCFPAQTVLGKMAIFTDEKTQGRDVLVELLNHELLRMRLYSEEVENLVEVLFNDWRPGKRVFIVRSKNFETRLSLREKLSSFADVIYNAGEIDVGIAPAGTLLQINEEKVSFSDPERDIKEAVRKALLIDRYVNEPFSFYEKLPAYNFSLNIQIPELVKIFLRTGDIQKTSELTEKNVEVVFREILKFEKKTLLSPRIPVEAFLILKGGLD | not soluble
